Assay: yeast display, Sf9 membrane polyspecificity reagent, FACS + sequencing; frameworks hold sequencing errors
Procedure, shortened: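 Synthetic nanobody libraries on Saccharomyces cerevisiae BJ5465 were galactose-induced for 36–48 hours, stained 1 hour at 4 °C with 10% biotinylated, detergent-solubilized Sf9 membrane reagent and enriched on streptavidin microbeads. FACS then separated cells into low and high (top ~1%) gates by anti-HA (expression) and streptavidin (reagent binding) fluorescence. Genes were colony-PCR amplified, MiSeq 2 × 250 sequenced and CDR-length filtered. A clone's polyreactivity label is that of its gate of origin.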

Row | Sequence | polyreactivity (PSR sort gate)
1 | QVQLVESGGGLVQAGGSLRLSFAASGSTFTINAMGWYRPAPGKERELVAAINDGHDTYYADSVKGRFTISRDNAKNTVYLQMNSLKPEDTAVYFCAADIIYGYEVYTYTSDYWGQGTQVTVSS | low polyreactivity
2 | QVQVVESGGGLVQAGGSLRLSSAASGSTFNYNAMGWYRQAPGKERELVAAITNGGSTSYADSVKGRFTISRDNAKNTVYLQMNSLKPEDTAVYYCNADEDLRGYDYWGQGTQVTVSS | low polyreactivity
3 | QVQLVESGGGLVQAGGSLRLSCAASGSILAYNAMGWYRQAPGKEREFVAAITGGVGSTYYADSVKGRFTISRDNAKNTVYLQMNSLKPEDTAVYYCAKRTYHEYNNQFVKYYYWGQGTQVTVSS | high polyreactivity
4 | QVQLVESGGGLVQAGGSLRLSCAASGRTFKFYAMGWYRQAPGKERELVARITSNSGSTYYADTVKVRYTISRDNAKNTVYLQMNSLKPEDTAVYYCAARGRYRQFNYWGQGTQVTVSS | high polyreactivity
5 | QVQLVEAGGGLVQAGGSLRLSCAASGSIFGSYAMGWYRQAPGKERELVAAISGSGGRTYYADSVKGRFTISRDNAKISVYLQMNSLKPDDTAVYYCAAAYPRVTYNYGYYWGQGTQVTVSS | high polyreactivity
6 | QVQLVESGGGLVQAGGSLRLSCAASGFTYVVYDMGWYRQAPGKERELLAVITNSGGSTYYADSVKGRFTISRDNAKNTVYLQMYSLKPEDTAVYYCATRTPVWVNTESDYWGQGTQVTVSS | low polyreactivity
7 | QVQLVESGGGLVQAGGSLRLSCAASGSIFGRYAMGWYRQAPGKERELLAALTYRGGTTYYADSVKGRFTISRDNAKNTVYLQMNSLKPEDTAVYYCAAEGTWYYKYGYFAYYYWGQGTQVTVSS | low polyreactivity
8 | QVQLVESGGGLVQAGGSLRLSCAASGRTFGPNAMGWYRQAPGKERELVAVISGSTGSTYYADSVKGRFTISRDNAKNTVYLEMNSLKPEDTAVYYCAAKSEFYDWYRSYQYEYYYWGQGTQVTVSS | high polyreactivity
9 | QVQLVESGGGLVQAGGSLRLSCAASGRIFFLNAMGWYRQAPGKERELVATISWTGGSTYYADSVKGRFTISRDNAKNTVDLQMTSLKPEDTAGYYCAKDGTNWGHAFDSWGQGTEVTVSS | low polyreactivity
10 | QVELQVSGGGLVRAGGSLRLSCAASGNIFDADIMGWYRQAPGKERELVASITGGGSTSYAESAKGRFTISRDNAKNAVYLQMKSLKPEDTAVYYCARDSWWYHHYDYWGQGTQVTVSS | low polyreactivity
11 | QVQLVESGGGLVQAGGSLRLSCAASVFTFTHYAMGWYRQSAGKERELVAAISTSGVSTYYSDSVKGRFTISRDNAKNTVYLQMNSLKPEDTAVYYCAARRDGWFQWGYYYWGQGTQVTVSS | low polyreactivity
12 | QVQLVESGGGLVQAGGSLRLSCAASGRIFGAYAMGWYRQAPGKERELVAAITFRGGSTYYADSVKGRFTISRDNAKNTVYLQMNSLKPEDTAVYYCAADILDYLHIYDYWGQGTQVTVSS | low polyreactivity
13 | QVQLVESGGGLVQAGGSLRLSCAASGSTFRIYAMGWYRQAPGKERELVAAIRRRGASTYYADSVKGRFTISRDNAKNTVYLQMISLKPEDTAVYYCAASYFWDRVPGRGIHDYWGQGTQVTVSS | high polyreactivity
14 | QVQLVDSGGGLLQAGGSLRLSCAASGRIFVYNAMGWYRQAPGKERELVAAITRGGSTYYADSVKGRFTISRDNAKNTVDLQMNSLKPEDPAGYYCAADYAWVSIYDNVPSAPGYDDWGQGTQGTVSS | low polyreactivity
15 | QVQLVESGGGLVQAGGSLRLSCAASGNTFGNYGMGWYRQAPGKEREFVAAITSRGTSTYYADSVKGRFTISRDNAKYTVYLQMNSLKPEDTAVYYCNARPRYKYPRYDYWGQGTQVTVSS | high polyreactivity
16 | QVQLVESGGGLVQAGGSLRLSCAASGFIFSGNAMGWYILAPGKERELVAGIRSLGGTTSYADSVKGRFTISRDNAKNTVYLQMNSMKPEDTAVYYCAAGYGAEFDYWGQGTQVTVSS | low polyreactivity
